Source: patent EP4296674A1 (Université Toulouse III - Paul Sabatier, dated 2023)

B3: HadA of Mycobacterium tuberculosis fused to an enhanced Green Fluorescent Protein (eGFP) tag at its N-terminus (other)
chain: MALSADIVGMHYRYPDHYEVEREKIREYAVAVQNDDAWYFEEDGAAELGYKGLLAPLTFICVFGYKAQAAFFKHANIATAEAQIVQVDQVLKFEKPIVAGDKLYCDVYVDSVREAHGTQIIVTKNIVTNEEGDLVQETYTTLAGRAGEDGEGFSDGAA

What was measured:
[1] = biological target: HadB protein of Mycobacterium tuberculosis (untagged) (Mycobacterium tuberculosis)
[2] = biological target: N-terminal polyHis-tagged HadD of Mycobacterium tuberculosis (Mycobacterium tuberculosis); experiment: from the HadBD crystal structure
[3] = biological target: N-terminal polyHis-tagged HadD of Mycobacterium tuberculosis (Mycobacterium tuberculosis); experiment: PDBePISA analysis of the HadBD crystal structure
[4] = biological target: B3; experiment: pull-down from M. bovis BCG on anti-GFP magnetic beads, nanoLC-MS/MS proteomics
[5] = biological target: T1, HadD-Ctrp fusion protein (C-terminal fragment of S. cerevisiae Trp1p fused to the C-terminal end of HadD of … (Mycobacterium tuberculosis (HadD); …); experiment: split-Trp assay in M. smegmatis ΔhisA
T1 chain: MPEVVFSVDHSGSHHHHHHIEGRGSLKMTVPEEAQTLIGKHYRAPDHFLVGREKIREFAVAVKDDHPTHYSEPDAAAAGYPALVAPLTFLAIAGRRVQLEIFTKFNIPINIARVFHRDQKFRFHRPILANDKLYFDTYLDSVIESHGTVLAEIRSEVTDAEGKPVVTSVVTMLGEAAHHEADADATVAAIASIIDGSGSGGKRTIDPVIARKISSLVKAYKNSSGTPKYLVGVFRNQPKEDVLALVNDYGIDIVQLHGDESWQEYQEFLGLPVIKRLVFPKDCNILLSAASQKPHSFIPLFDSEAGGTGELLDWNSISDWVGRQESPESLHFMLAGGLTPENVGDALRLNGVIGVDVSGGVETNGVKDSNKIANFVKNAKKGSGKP

HadC-Ctrp fusion protein = biological target: T2, HadC-Ctrp fusion protein (Mycobacterium tuberculosis (HadC); …); experiment: split-Trp assay in M. smegmatis ΔhisA, positive control pair
T2 chain: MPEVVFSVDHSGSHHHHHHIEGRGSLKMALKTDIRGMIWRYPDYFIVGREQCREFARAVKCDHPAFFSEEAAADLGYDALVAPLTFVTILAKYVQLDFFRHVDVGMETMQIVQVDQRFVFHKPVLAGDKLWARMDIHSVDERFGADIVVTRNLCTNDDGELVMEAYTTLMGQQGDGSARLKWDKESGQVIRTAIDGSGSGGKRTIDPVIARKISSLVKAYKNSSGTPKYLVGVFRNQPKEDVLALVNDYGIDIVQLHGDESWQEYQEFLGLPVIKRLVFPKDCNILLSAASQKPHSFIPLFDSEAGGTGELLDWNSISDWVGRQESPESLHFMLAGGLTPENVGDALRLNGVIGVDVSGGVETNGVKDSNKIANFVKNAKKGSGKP

HadC (Rv0637) = biological target: T3, HadC (Rv0637) (Mycobacterium tuberculosis, UniProt P9WFJ9 1-166); experiment: pull-down from M. bovis BCG on anti-GFP magnetic beads, nanoLC-MS/MS proteomics
T3 sequence: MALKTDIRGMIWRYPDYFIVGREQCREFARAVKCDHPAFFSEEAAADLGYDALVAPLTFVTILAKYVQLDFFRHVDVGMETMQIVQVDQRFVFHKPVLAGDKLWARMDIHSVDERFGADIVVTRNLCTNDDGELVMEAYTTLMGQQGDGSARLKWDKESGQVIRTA

[6] = biological target: T4, HadD of M. bovis BCG (BCG_0547c) (Mycobacterium bovis BCG, UniProt P64726 1-166); experiment: as above
T4 sequence: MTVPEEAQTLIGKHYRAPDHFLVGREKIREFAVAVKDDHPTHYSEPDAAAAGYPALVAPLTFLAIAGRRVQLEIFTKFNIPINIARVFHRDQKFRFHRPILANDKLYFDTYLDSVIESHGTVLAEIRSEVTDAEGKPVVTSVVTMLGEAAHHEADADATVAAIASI

[7] = biological target: T1, HadD-Ctrp fusion protein (C-terminal …); experiment: split-Trp assay in M. smegmatis ΔhisA, growth on medium without Trp
[8] = biological target: T5, Cfp10-Ctrp fusion protein (Mycobacterium tuberculosis (Cfp10); …); experiment: split-Trp assay in M. smegmatis ΔhisA, positive control pair
T5 chain: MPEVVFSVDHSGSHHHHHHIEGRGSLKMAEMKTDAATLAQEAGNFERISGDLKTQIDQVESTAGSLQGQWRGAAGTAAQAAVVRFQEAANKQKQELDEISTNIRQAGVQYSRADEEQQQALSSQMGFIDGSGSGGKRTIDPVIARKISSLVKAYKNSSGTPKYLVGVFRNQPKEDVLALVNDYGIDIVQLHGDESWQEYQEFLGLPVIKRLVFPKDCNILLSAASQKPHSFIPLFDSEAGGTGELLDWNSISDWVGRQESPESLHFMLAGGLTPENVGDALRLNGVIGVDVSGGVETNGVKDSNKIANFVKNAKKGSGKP

HadB protein of Mycobacterium tuberculosis (untagged) (enzyme)
buried surface area [1]: 525 A^2 | ΔG (PDBePISA) [1]: -5.8 kcal/mol | total buried surface at each heterodimer interface [2]: 3840 A^2 | surface of heterodimerization (PDBePISA) [3]: 1340 Å^2 | ΔG of heterodimerization (PDBePISA) [3]: -11 kcal/mol

B1: HadB protein of Mycobacterium tuberculosis (untagged) (enzyme)
chain: MALREFSSVKVGDQLPEKTYPLTRQDLVNYAGVSGDLNPIHWDDEIAKVVGLDTAIAHGMLTMGIGGGYVTSWVGDPGAVTEYNVRFTAVVPVPNDGKGAELVFNGRVKSVDPESKSVTIALTATTGGKKIFGRAIASAKLA
binding result [4]: binds

B2: Ntrp-HadB fusion protein (N-terminal fragment of S. cerevisiae Trp1p fused to the N-terminal end of HadB of Mtb) (other)
chain: MPEVVFSVDHSGSGTMYPYDVPDYASSVINFTGSSGPLVKVCGLQSTEAAECALDSDADLLGIICVPNRGGSGSGLKMALREFSSVKVGDQLPEKTYPLTRQDLVNYAGVSGDLNPIHWDDEIAKVVGLDTAIAHGMLTMGIGGGYVTSWVGDPGAVTEYNVRFTAVVPVPNDGKGAELVFNGRVKSVDPESKSVTIALTATTGGKKIFGRAIASAKLA
binding result [5]: binds | binding result (HadC-Ctrp fusion protein): binds

B3
binding result (HadC (Rv0637)): binds | binding result [6]: binds

B4: Ntrp-HadDMtb fusion protein (other)
chain: SSVINFTGSSGPLVKVCGLQSTEAAECALDSDADLLGIICVPNRMTVPEEAQTLIGKHYRAPDHFLVGREKIREFAVAVKDDHPTHYSEPDAAAAGYPALVAPLTFLAIAGRRVQLEIFTKFNIPINIARVFHRDQKFRFHRPILANDKLYFDTYLDSVIESHGTVLAEIRSEVTDAEGKPVVTSVVTMLGEAAHHEADADATVAAIASI
binding result [7]: no binding

B5: Ntrp-Esat6 fusion protein (other)
chain: MPEVVFSVDHSGSGTMYPYDVPDYASSVINFTGSSGPLVKVCGLQSTEAAECALDSDADLLGIICVPNRGGSGSGLKMTEQQWNFAGIEAAASAIQGNVTSIHSLLDEGKQSLTKLAAAWGGSGSEAYQGVQQKWDATATELNNALQNLARTISEAGQAMASTEGNVTGMFA
binding result [8]: binds
